Results: publication doi:10.1101/789552 (bioRxiv, 2019)
Read-outs that look alike come from different tables or passages of the source.

Columns and labels:
Assay in all cases: non-reducing SDS-PAGE with Western blot
[1] = molecular target: the molecule itself
[2] = molecular target: the molecule itself; remark: listed apart in the source
[3] = molecular target: the molecule itself; remark: listed apart in the source

B1: CAP2 (endogenous, rat hippocampus and primary hippocampal neurons) (natural protein, UniProt P52481 1-477, looked up)
chain: MADMLGLMQRLEFAVSRLERLSSGLHEPPGGCGEVNSLSRGIVAPSVEAFDKLINSMVAEFLKNSRVLAGDVETHAEMVHGAFQAQRAFLLMVSQHQQPQENEVAVLLKPISEKIQEIQTFRERNRGSDMFNHLSAVSESIAALGWIAVSPKPGPYVKEMNDAATFYTNRVLRDYKHSDLRHVDWVRSYLKIWSELQAYIKEHHTTGLTWSKTGPVASTASAFSILSSGPGLPPPPPPPPPPGPPPPFENEGGKEEPSPSRSALFAQLNQGEAITKGLRHVTDDKKIYKNPSLRAQGQIRSPTKTRTPSPTSSKSNSPQKHAPVLELEGKKWRVEYQEDRNDLVISETELKQVAYIFKCDKSTLQIKGKVNSITVDNCKKFGLVFDHVVGIVEVINSKDIQIQVMGRVPTISINKTEGCHLYLSKDALDCEIVSAKSSEMNVLVPQGDDYREFPIPEQFKTIWDGSKLITEPAEIMA
Question: B1 was tested. Which “stoichiometry N” value [1] did it give?
Answer: 2

B2: CAP2 (endogenous, mouse hippocampus) (natural protein, mouse (endogenous in hippocampus), UniProt Q9CYT6 1-476, looked up)
chain: MTDMAGLMERLERAVIRLEQLSAGLDGPPRGCGEVNGVNGGVAPSVEAFDKLINSMVAEFLKNSRVLAGDVETHAEMVHGAFQAQRAFLLMVSQYQQPQENEVAVLLKPISEKIQEIQTFRERNRGSNMFNHLSAVSESIAALGWIAVSPKPGPYVKEMNDAATFYTNRVLKDYKHSDLRHVDWVRSYLNIWSELQAYIREHHTTGLTWSKTGPVASTASAFSILSSGPGLPPPPPPPPPPGPPPPFENEDKKEEPSPSRSALFAQLNQGEAITKGLRHVTDDKKTYKNPSLRAQGQIRSPTKTHTPSPTSPKSNSPQKHTPVLELEGKKWRVEYQEDRNDLVISETELKQVAYIFKCDKSTLQIKGKVNSITVDNCKKFGLVFDHVVGIVEVINSKDIQIQVMGRVPTISINKTEGCHLYLSEDALDCEIVSAKSSEMNVLVPQDDDYREFPIPEQFKTIWDGSKLVTEPAEIMA
Question: How did the “stoichiometry N” value [1] turn out when B2 was run?
Answer: 2

B3: Myc-CAP2 (natural protein, UniProt Q9CYT6 1-476, looked up)
chain: MTDMAGLMERLERAVIRLEQLSAGLDGPPRGCGEVNGVNGGVAPSVEAFDKLINSMVAEFLKNSRVLAGDVETHAEMVHGAFQAQRAFLLMVSQYQQPQENEVAVLLKPISEKIQEIQTFRERNRGSNMFNHLSAVSESIAALGWIAVSPKPGPYVKEMNDAATFYTNRVLKDYKHSDLRHVDWVRSYLNIWSELQAYIREHHTTGLTWSKTGPVASTASAFSILSSGPGLPPPPPPPPPPGPPPPFENEDKKEEPSPSRSALFAQLNQGEAITKGLRHVTDDKKTYKNPSLRAQGQIRSPTKTHTPSPTSPKSNSPQKHTPVLELEGKKWRVEYQEDRNDLVISETELKQVAYIFKCDKSTLQIKGKVNSITVDNCKKFGLVFDHVVGIVEVINSKDIQIQVMGRVPTISINKTEGCHLYLSEDALDCEIVSAKSSEMNVLVPQDDDYREFPIPEQFKTIWDGSKLVTEPAEIMA
Question: For B3, which “stoichiometry N” value [2] is on record?
Answer: 2

B4: Streptag-CAP2 (natural protein, UniProt Q9CYT6 1-476, looked up)
chain: MTDMAGLMERLERAVIRLEQLSAGLDGPPRGCGEVNGVNGGVAPSVEAFDKLINSMVAEFLKNSRVLAGDVETHAEMVHGAFQAQRAFLLMVSQYQQPQENEVAVLLKPISEKIQEIQTFRERNRGSNMFNHLSAVSESIAALGWIAVSPKPGPYVKEMNDAATFYTNRVLKDYKHSDLRHVDWVRSYLNIWSELQAYIREHHTTGLTWSKTGPVASTASAFSILSSGPGLPPPPPPPPPPGPPPPFENEDKKEEPSPSRSALFAQLNQGEAITKGLRHVTDDKKTYKNPSLRAQGQIRSPTKTHTPSPTSPKSNSPQKHTPVLELEGKKWRVEYQEDRNDLVISETELKQVAYIFKCDKSTLQIKGKVNSITVDNCKKFGLVFDHVVGIVEVINSKDIQIQVMGRVPTISINKTEGCHLYLSEDALDCEIVSAKSSEMNVLVPQDDDYREFPIPEQFKTIWDGSKLVTEPAEIMA
Question: How did the “stoichiometry N” value [3] turn out when B4 was run?
Answer: 2

B5: CAP2 monomer (endogenous, human hippocampus) (natural protein, human (endogenous in hippocampus), UniProt P40123 1-477, looked up)
chain: MANMQGLVERLERAVSRLESLSAESHRPPGNCGEVNGVIAGVAPSVEAFDKLMDSMVAEFLKNSRILAGDVETHAEMVHSAFQAQRAFLLMASQYQQPHENDVAALLKPISEKIQEIQTFRERNRGSNMFNHLSAVSESIPALGWIAVSPKPGPYVKEMNDAATFYTNRVLKDYKHSDLRHVDWVKSYLNIWSELQAYIKEHHTTGLTWSKTGPVASTVSAFSVLSSGPGLPPPPPPLPPPGPPPLFENEGKKEESSPSRSALFAQLNQGEAITKGLRHVTDDQKTYKNPSLRAQGGQTQSPTKSHTPSPTSPKSYPSQKHAPVLELEGKKWRVEYQEDRNDLVISETELKQVAYIFKCEKSTIQIKGKVNSIIIDNCKKLGLVFDNVVGIVEVINSQDIQIQVMGRVPTISINKTEGCHIYLSEDALDCEIVSAKSSEMNILIPQDGDYREFPIPEQFKTAWDGSKLITEPAEIMA
Question: Which “stoichiometry N” value [1] does the source give for B5 here?
Answer: 2
